The values that follow come from patent publication US20260241018A1 (BIOCYTOGEN PHARMACEUTICALS BEIJING, published 2026).

Experiment [1] has as its target T1, 5T4 on NCI-H226 cells, NCI-H2030 cells and HCC827 cells (UniProt Q13641 32-420, limits assumed).
T1 construct: whole, on cells
T1 sequence (looked up): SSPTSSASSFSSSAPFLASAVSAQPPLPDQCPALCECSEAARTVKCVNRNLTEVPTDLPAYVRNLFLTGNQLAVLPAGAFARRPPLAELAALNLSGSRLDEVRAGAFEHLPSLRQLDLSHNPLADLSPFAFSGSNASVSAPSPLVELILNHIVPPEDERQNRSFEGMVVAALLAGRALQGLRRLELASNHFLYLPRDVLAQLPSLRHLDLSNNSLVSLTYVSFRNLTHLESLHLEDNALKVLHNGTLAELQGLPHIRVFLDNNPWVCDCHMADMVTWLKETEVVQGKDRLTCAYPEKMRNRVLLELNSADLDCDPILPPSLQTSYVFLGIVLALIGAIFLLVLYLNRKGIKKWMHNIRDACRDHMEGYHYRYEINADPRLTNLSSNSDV
Put plainly: flow cytometry on NCI-H2030 cells, Alexa Fluor 647 anti-human IgG Fc secondary antibody, MFI. How it is done:
(§1) NCI-H226 cells, NCI-H2030 cells or HCC827 cells were plated in a 96-well plate at a density of 2×10⁵ cells/well. Serially diluted purified anti-5T4 antibody 32G1 or the positive control PF06263507 analog-SI (maximum concentration: 20 μg/mL, 2-fold dilutions, 12 gradients) were added to each well and were incubated at 4° C. for 30 minutes. Then, after one wash with PBS, the cells were incubated with the secondary antibody Alexa Fluor® 647 anti human IgG Fcγ (Jackson ImmunoResearch Laboratories, Inc., Cat #: 109-606-170) at 4° C. for 15 minutes before flow cytometry analysis.
(§2) The cells were collected, and the mean fluorescence intensity (MFI) was determined.
(A flow cytometer gives signals particle by particle.)

Experiment [2] has as its target T2, human 5T4 expressed on CHO-S cells (CHO-h5T4 cells) (human, UniProt Q13641 32-355).
T2 sequence: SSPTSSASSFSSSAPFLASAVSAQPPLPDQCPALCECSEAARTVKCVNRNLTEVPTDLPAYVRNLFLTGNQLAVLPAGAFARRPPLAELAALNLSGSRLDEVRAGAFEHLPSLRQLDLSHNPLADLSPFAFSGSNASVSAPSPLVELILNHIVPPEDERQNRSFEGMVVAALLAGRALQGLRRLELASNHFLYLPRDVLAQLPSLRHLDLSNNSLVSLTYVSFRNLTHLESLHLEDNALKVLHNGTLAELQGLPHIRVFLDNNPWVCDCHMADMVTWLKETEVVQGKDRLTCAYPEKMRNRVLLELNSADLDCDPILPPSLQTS
Put plainly: flow cytometry, CHO-h5T4 cells. How it is done: (§3) CHO-h5T4 cells, CHO-m5T4 cells, CHO-fas5T4 cells or CHO-d5T4 cells were transferred to a 96-well plate at a density of 2×10⁵ cells/well respectively. The anti-5T4 antibodies were added to the 96-well plate, and incubated at 4° C. for 30 min. Then, the cells were incubated with the secondary antibody anti-hlgG-Fc-Alex Flour 647 (RL1-H) (Jackson ImmunoResearch Laboratories, Inc., Cat #: 109-606-170) at 4° C. in the dark for 15 minutes before flow cytometry analysis.

The target in experiment [3] is T3, h5T4-His protein (human, UniProt Q13641 32-355, limits assumed).
T3 construct: also called His-tagged human 5T4 protein; not shown: His tag
T3 sequence (looked up): T2 sequence
Put plainly: epitope binding assay, h5T4-His captured; binder = analyte 2; competitor (analyte 1): 32G1. How it is done:
(§4) Epitope binding assays were performed using ForteBio Octet system to determine whether two anti-5T4 antibodies target the same or overlapping epitopes. 1×HBS-EP+buffer (10 mM 4-(2-hydroxyethyl)-1-piperazineethanesulfonic acid (HEPES), 150 mM NaCl, 3 mM ethylenediaminetetraacetic acid (EDTA) and 0.05% P20, pH7.4) diluted from HBS-EP+buffer (10×) was used as the running buffer throughout the experiment. About 50 RU of h5T4-His protein was captured at a flow rate of 10 μL/min, and 200 nM of the tested antibody was injected at a flow rate of 30 μL/min to bind the ligand. Another comparison antibody was injected under the same conditions to determine whether the binding of different antibodies interfered with each other. The binding time was 180 s for each antibody.
(§5) The binding value of each antibody was obtained using Data Analysis HT 12.0. To quantify the interference of one antibody binding to another, a binding ratio was calculated to compare each pair of antibodies. The binding ratio is defined as the binding value of the second antibody (analyte 2), divided by the binding value of the first antibody (analyte 1). […] In general, antibody pairs that interfere with each other have the same or overlapping epitopes.

Experiment [4] deals with T3, h5T4-His protein. Put plainly: epitope binding assay, h5T4-His captured; binder = analyte 2; competitor (analyte 1): 32G8. How it is done:
as §4, §5

The target in experiment [5] is T1, 5T4 on NCI-H226 cells, NCI-H2030 cells …. Put plainly: flow cytometry on HCC827 cells, Alexa Fluor 647 anti-human IgG Fc secondary antibody, MFI. How it is done: as §1, §2
The target of experiment [6] is T4, monkey (Macaca fascicularis) 5T4 expressed on CHO-S cells (CHO-fas5T4 cells) (monkey (Macaca fascicularis), UniProt Q4R8Y9 35-355).
T4 construct: also called monkey 5T4
T4 sequence: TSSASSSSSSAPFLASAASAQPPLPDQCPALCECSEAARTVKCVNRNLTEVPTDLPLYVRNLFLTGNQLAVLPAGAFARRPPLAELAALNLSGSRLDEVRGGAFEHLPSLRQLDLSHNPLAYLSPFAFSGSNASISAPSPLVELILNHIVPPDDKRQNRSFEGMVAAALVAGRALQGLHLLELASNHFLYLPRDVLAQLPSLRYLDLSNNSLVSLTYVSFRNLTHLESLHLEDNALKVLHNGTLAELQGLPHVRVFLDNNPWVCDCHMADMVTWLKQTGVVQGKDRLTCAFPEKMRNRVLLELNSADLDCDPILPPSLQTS
Put plainly: flow cytometry, CHO-fas5T4 cells. How it is done:
as §3

In experiment [7] the target is T3, h5T4-His protein. Put plainly: epitope binding assay, h5T4-His captured; binder = analyte 2; competitor (analyte 1): 32E3. How it is done: as §4, §5
Experiment [8] concerns the target T3, h5T4-His protein. Put plainly: epitope binding assay, h5T4-His captured; binder = analyte 2; competitor (analyte 1): 35C6. How it is done: as §4, §5

B1: 32G1 (antibody, V domains shown)
VH: QVQLVQSGGGLVKPGGSLRLSCVASGFTFSDYYMNWVRQAPGKGLEWISYVGTESIYTYYADTVKGRFTISRDNAKNSLYLQMNSLRAEDTALYYCARARDYNLYGMDVWGQGTTVTVSS
VL: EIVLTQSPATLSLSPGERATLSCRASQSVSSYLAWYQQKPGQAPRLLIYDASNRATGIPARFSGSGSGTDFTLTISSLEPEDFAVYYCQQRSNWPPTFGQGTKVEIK
notes: also called anti-5T4 antibody 32G1
As to B1, the EC50 (read off the curve) (in general, the concentration at which the effect is half-maximal) in experiment [1] was about 0.2 µg/mL; in experiment [5] it was about 0.8 µg/mL. The “Percentage of Positive Cells” value in experiment [2] was 56.5%; in experiment [6] it was 53.2%. Moreover, the binding ratio with h5T4-His protein [3] was determined as 0.01; with h5T4-His protein [4], 0.82; in the experiment with h5T4-His protein [7] it was 0.89; in the experiment with h5T4-His protein [8] it was 1.03.
